The values that follow come from the supplement of paper PMC12042874.

± gives the uncertainty stated by the source.

The nature of the data set: amyloid nucleation score (Sup35N fusion, yeast selection) (log enrichment); library NNK3; higher = more nucleation; inactive = no reads after selection. In short, it runs like this:
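Output and input plasmid inserts were sequenced by Illumina after psi-negative yeast carrying Sup35N fused to peptides of 20 random codons had been induced 24 hours with 100 μM copper sulfate and grown 7 days at 30°C on medium lacking adenine and uracil. The nucleation score is the DiMSum log enrichment of output over input reads, centred on the mode score of non-aggregating sequences. Sequences with under 100 input reads were excluded.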
On to YFRVAFCTHGFIMARCAFSS, for which the amyloid nucleation score entry was “inactive”.

Take LCKQTSTTNLSGV: the amyloid nucleation score result is “inactive”.

LCVVEIFTLIGSCCHSDLGW displayed an amyloid nucleation score of 0.914 ± 0.13.

On to STLASSS, for which the amyloid nucleation score result is “inactive”.

Regarding RERVATFQQPTRHGGGSLAS, the amyloid nucleation score result was “inactive”.

With RAYMVGCYDCSSYLDPFSYS, the amyloid nucleation score result was “inactive”.

On to WGWRA, for which the amyloid nucleation score is -0.215 ± 0.57.

For PVLNAAVHDNFFTADHIRKK, the amyloid nucleation score result is “inactive”.

On to FFGWSSRVSSACAVPVEINS, for which the amyloid nucleation score result was “inactive”.

Regarding SSLSTNARVDLSMRR, the amyloid nucleation score entry is “inactive”.

For the substance QEYSGHATSGAHMRWAYSVE, the amyloid nucleation score result was “inactive”.

With SCGGCLFPDHKCCTSYARWV, the amyloid nucleation score result is “inactive”.

Consider LLFQL, for which the amyloid nucleation score entry was “inactive”.

Substance LNFGEFILMAGDLLTLMCVF returned an amyloid nucleation score of 1.42 ± 0.12.

For the substance SDFPRMNWGFETKCDYSTVR, the amyloid nucleation score result is “inactive”.

As for YDVTSDR, the amyloid nucleation score result is “inactive”.

For the substance HPCPK, the amyloid nucleation score result is “inactive”.

On to KYDSY, for which the amyloid nucleation score entry was “inactive”.

CFMLSDGHTCFVLMSGWFSS: the amyloid nucleation score entry was “inactive”.

RTTKSNYTVLLDQNIPLSPT: the amyloid nucleation score entry is “inactive”.

With DRRYEGGRKVQSYTVARPWS, the amyloid nucleation score result is “inactive”.

With TLLARFSPRLATTYSNAICG, the amyloid nucleation score entry was “inactive”.

As to GIIVLLVPETQCRCFGDLIR, the amyloid nucleation score entry is “inactive”.

Consider NVLLFLIVKHSVGIFVV, for which the amyloid nucleation score entry is “inactive”.

SVSFVDSRLLYVKICLSALG: the amyloid nucleation score entry is “inactive”.

Turning to SWYVAFFNNSGFSCMGVFVG, the amyloid nucleation score result was “inactive”.

As to QVPLCHMAGKQNLVSRAQTC, the amyloid nucleation score result is “inactive”.

For the substance HRGYAAFFS, the amyloid nucleation score entry was “inactive”.

On to YWNIMIGYLLKSTGSGRSA, for which the amyloid nucleation score entry is “inactive”.

As for YDCFFTEIAVVVNIE, the amyloid nucleation score entry is “inactive”.

With GHSSSNMGNVHFKFLC, the amyloid nucleation score entry was “inactive”.

Turning to MLMAPSYEYT, the amyloid nucleation score is -0.209 ± 0.78.

Take FVGHDTELNPHGRYGCLD: the amyloid nucleation score result is “inactive”.

As to GASSIFLIVRSDGSYFSPD, the amyloid nucleation score result is “inactive”.

Substance CFIMLWCTISFIILVSLVTD showed an amyloid nucleation score of 0.671 ± 0.3.

For LGFMKSFLGYSY, the amyloid nucleation score entry is “inactive”.

Consider LVYKLDVNCYDRNLLDSVEK, for which the amyloid nucleation score result is “inactive”.

Take IIGPGYFFYLKLYA: the amyloid nucleation score came to 0.549 ± 0.27.

As for LLFSGHYVGAYLGYVFPICS, the amyloid nucleation score entry is “inactive”.

Consider HPTFHSHDRGR, for which the amyloid nucleation score entry is “inactive”.

As for PFCVGIQFDSEKPLVYFNLL, the amyloid nucleation score result was “inactive”.

Turning to FSQWT, the amyloid nucleation score result is “inactive”.

In the case of GLDYLLHAIYFECRQSGGSR, the amyloid nucleation score was 0.983 ± 0.17.

In the case of NLLSAVY, the amyloid nucleation score was 0.787 ± 0.28.

For the substance VINCIDMRLVYMLGETFFNY, the amyloid nucleation score was found to be 2.03 ± 0.083.

Take RSEVAGFHLE: the amyloid nucleation score is -0.807 ± 1.1.

For the substance VMAELVSVKVAQVIVR, the amyloid nucleation score result was “inactive”.

For SLSVSYDVLWRIFSGNNGNW, the amyloid nucleation score came out at 1.25 ± 0.083.

REWIGLSTYDSA: the amyloid nucleation score entry is “inactive”.

As to LYNGELNLMVRSNAEFMGSG, the amyloid nucleation score entry was “inactive”.

With VSDDLMDGSKNVLFARVEGD, the amyloid nucleation score result was “inactive”.

Regarding CPRDNVSIVKWWLAYRDSHA, the amyloid nucleation score result is “inactive”.

Take THGVR: the amyloid nucleation score entry is “inactive”.

Consider GISPQC, for which the amyloid nucleation score result is “inactive”.
